Results reported in the RNAGym collection of RNA variant scans (doi:10.1073/pnas.2313332121).
This sample holds only a part of the variants without activity.

B1: TPR 5TU (parent)
chain: GGAUCUUCUCGAUCUAACAAAAAAGACAAAUCUGCCACAAAGCUUGAGAGCAUCUUCGGAUGCAGAGGCGGCAGCCUUCGGUGGCGCGAUAGCGCCAACGUUCUCAACUAUGACACGCAAAACGCGUGCUCCGUUGAAUGGAGUUUAUCAUG

Variants of: B1
Test: polymerase ribozyme fitness, log enrichment relative to wild type (log ratio); higher = more active; in vitro selection for triplet polymerase activity
How it was run: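 Mutant libraries of each subunit of a heterodimeric triplet polymerase ribozyme were built by PCR and transcribed. Each library went through one round of in vitro selection in triplicate: annealing with biotinylated primer, partner subunit and triplets, frozen incubation at −7 °C, gel excision of extended constructs, streptavidin-bead capture and RT-PCR. Input and output libraries were Illumina-sequenced; only genotypes with ≥10 input reads and ≥1 read per output were kept. Fitness is log2(genotype enrichment/wild-type enrichment), using inverse-variance-weighted replicate averages.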

Variant | polymerase ribozyme fitness (log ratio)
G80A C114U A137C | -3.92
U82C C95U C131G A142C | ≤ -4.2
G83C G117U | -1.62
U82C G94A | -1.35
G83C C118G | -0.968
G83C C118U | -1.34
G81U G84A | -1.28
U82A A106G C123G U148G | -4.03
C79A U82G C93A G141U G152U | ≤ -4.2
G80U G81C G84U A89U A97U G100A G126U | ≤ -4.2
U82C C85A U145C | 0.554
G81C G84U G126C | -2.04
G81C C103U U134G | -2.49
C79U A91C | -4.02
G81A A97U | -0.297
G80C C96U | -3.79
U82A U146A | -0.606
C79U C87G | -3.61
G80A G128U | -3.18
U82G G92U C131A | -3.24
U82G C85A C95U U146A A150U | -1.37

Variant | polymerase ribozyme fitness (log ratio)
G81C C85U A107C G126A | -4.16
G80C G94A | ≤ -4.2
C79G A98U C99U G133U | ≤ -4.2
U82A A89G C96G G128U | -4.05
G81A C96U C114G A115U | -3.6
G83A C105A | -3.15
G80U A110G | -4.05
G81C C132G | -3.75
U82G A113G C125U | -3.28
U82G U104C C116U C125U A138C | ≤ -4.2
G81A C87U A97U | -1.53
G83C C116U A120C U135G | -3.87
G81A U127C | -2.04
G81A U127G | -3.31
C79A C93G C95U U127G C131U G143U | ≤ -4.2
G81C G117A A119C | 0.184
G81C C125A G140C | -3.98
C79U C87U A113G | -4.11
C79A G83A | -3.78
C79U C85U A115C | ≤ -4.2
G83A A115G | -1.64

Variant | polymerase ribozyme fitness (log ratio)
U82A A91G C105U | -2.53
G80U C103G G152A | ≤ -4.2
G83C C105G G126A | -2.8
U82G U101G | 0.433
G83A C96U C118U | -0.697
G81A C95A | -0.0952
C79G G84A G100A A110C | ≤ -4.2
G83A A110C C123G | ≤ -4.2
G81U C85A U139G | -0.703
U82C G94U A98G A107C | ≤ -4.2
U82G C87U G92U A98G | -2.69
U82G C87U U146C | -0.959
G80C G84C G133A G141C | ≤ -4.2
G80U C85A | -2.27
C79U U90A A137G | ≤ -4.2
G83C A121U | 0.406
U82G C93A | -2.46
G80A A119U | -0.405
C79U A91U C125A | ≤ -4.2
U82C G84A G117U | -0.688
G81U C95U | -1.63

Variant | polymerase ribozyme fitness (log ratio)
G80A A150G | -1.8
U82A G124A | 0.114
C79U G81U G92C U127G | ≤ -4.2
G83C G92A | ≤ -4.2
G83A C118A C129A | -3.64
G83A C87U C123G A142G | -2.09
G81A A115U A142U | -2.42
G81U C96U A150C | -3.33
G80U C105U G136U | -1.49
U82G | 0.17
U82C | -0.0678
U82A | -0.0631
G83C C118A A142G | -2.35
G83C C93G | ≤ -4.2
G83C C93U | -2.49
U82A C129A | -2.19
G83C G84U A110C | ≤ -4.2
G81A G140C | -2.67
C79U C93U C95U | -4.08
G83C A106G | -0.352
